The text below walks through data of paper PMC8533110, “Feeling the Heat: The Campylobacter jejuni HrcA Transcriptional Repressor Is an Intrinsic Protein Thermosensor” (Biomolecules, 2021).

The target of this test is T1, GST-HrcA fusion protein (C. jejuni NCTC11168 HrcA repressor fused to glutathione S-transferase) (C. jejuni NCTC 11168, UniProt Q9PPG2 1-264).
T1 construct: HrcA heat-shock transcriptional repressor of Campylobacter jejuni NCTC 11168; also called heat-shock repressor HrcA
T1 sequence (looked up): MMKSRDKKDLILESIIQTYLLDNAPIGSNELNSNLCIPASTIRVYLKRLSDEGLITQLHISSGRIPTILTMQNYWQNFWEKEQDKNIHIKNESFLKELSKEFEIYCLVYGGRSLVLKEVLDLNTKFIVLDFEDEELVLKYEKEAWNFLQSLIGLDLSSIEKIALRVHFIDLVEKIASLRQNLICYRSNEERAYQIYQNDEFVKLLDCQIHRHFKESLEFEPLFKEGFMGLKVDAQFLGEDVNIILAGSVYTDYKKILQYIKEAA
Briefly: pull-down; GST-HrcA on glutathione-agarose as bait, incubated 16 h at 4 °C with pre-cleared C. jejuni NCTC11168 cytoplasmic extract in Res buffer (10 mM Tris-HCl pH 7.5, 100 mM NaCl, 20 mM KCl, 1 mM EDTA, 0.01% NP-40); GroEL detected by anti-GroEL immunoblot; GST alone as control bait. The following applies: one partner purified.

B1: GroEL chaperonin of C. jejuni (natural protein, UniProt O69289 1-545, looked up)
chain: MAKEIIFSDEARNKLYEGVKKLNDAVKVTMGPRGRNVLIQKSFGAPSITKDGVSVAKEVELKDSLENMGASLVREVASKTADQAGDGTTTATVLAHAIFKEGLRNITAGANPIEVKRGMDKACEAIVAELKKLSREVKDKKEIAQVATISANSDEKIGNLIADAMEKVGKDGVITVEEAKSINDELNVVEGMQFDRGYLSPYFITNAEKMTVELSSPYILLFDKKITNLKDLLPVLEQIQKTGKPLLIIAEDIEGEALATLVVNKLRGVLNISAVKAPGFGDRRKAMLEDIAILTGGEVISEELGRTLESATIQDLGQASSVIIDKDNTTIVNGAGEKANIDARVNQIKAQIAETTSDYDREKLQERLAKLSGGVAVIKVGAATETEMKEKKDRVDDALSATKAAVEEGIVIGGGAALIKAKAKIKLDLQGDEAIGAAIVERALRAPLRQIAENAGFDAGVVVNSVENAKDENTGFDAAKGEYVNMLESGIIDPVKVERVALLNAVSVASMLLTTEATISEIKEDKPTMPDMSGMGGMGGMGGMM
notes: GroEL (60 kDa chaperonin) of Campylobacter jejuni NCTC 11168, endogenous protein detected by anti-GroEL immunoblot; Only GroEL was detected in the pull-down; also called GroE chaperonin; source: endogenous, cytoplasmic protein extract of C. jejuni NCTC11168 wild type
As to B1, the “fold intensity of the GroEL band against the GST control pull-down” value was determined as 6.2 fold.
